Data taken from article PMC9482650, “Quantitative fragmentomics allow affinity mapping of interactomes” (Nature Communications, 2022).

T1: GRIP1_5, Q9Y3R0
T1 sequence (Q9Y3R0 568-668, limits assumed, looked up): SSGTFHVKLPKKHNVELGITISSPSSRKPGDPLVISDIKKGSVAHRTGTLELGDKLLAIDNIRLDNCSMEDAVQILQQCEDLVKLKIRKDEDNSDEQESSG

T2: APBA1_2, Q02410
T2 sequence (Q02410 742-832, limits assumed, looked up): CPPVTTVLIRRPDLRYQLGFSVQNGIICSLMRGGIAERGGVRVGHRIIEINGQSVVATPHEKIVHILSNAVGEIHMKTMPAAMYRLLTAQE

T3: LIN7A, O14910
T3 sequence (O14910 103-200, limits assumed, looked up): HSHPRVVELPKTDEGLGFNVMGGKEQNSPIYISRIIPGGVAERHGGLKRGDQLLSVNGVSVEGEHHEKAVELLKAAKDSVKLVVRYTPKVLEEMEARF

T4: SYNJ2BP, P57105
T4 sequence (P57105 8-110, limits assumed, looked up): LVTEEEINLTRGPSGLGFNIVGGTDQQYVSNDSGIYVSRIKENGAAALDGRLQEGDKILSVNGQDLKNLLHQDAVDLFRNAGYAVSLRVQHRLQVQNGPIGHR

T5: SHANK1, Q9Y566
T5 sequence (Q9Y566 658-767, limits assumed, looked up): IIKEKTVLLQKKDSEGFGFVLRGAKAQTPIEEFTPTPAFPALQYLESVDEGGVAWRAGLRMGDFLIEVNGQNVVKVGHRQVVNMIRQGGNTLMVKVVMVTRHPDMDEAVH

T6: PARD3B_1, Q8TEW8
T6 sequence (Q8TEW8 196-299, limits assumed, looked up): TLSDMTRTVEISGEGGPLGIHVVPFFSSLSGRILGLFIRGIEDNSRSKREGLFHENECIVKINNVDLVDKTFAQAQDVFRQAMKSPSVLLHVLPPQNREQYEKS

T7: LIN7C, Q9NUP9
T7 sequence (Q9NUP9 88-185, limits assumed, looked up): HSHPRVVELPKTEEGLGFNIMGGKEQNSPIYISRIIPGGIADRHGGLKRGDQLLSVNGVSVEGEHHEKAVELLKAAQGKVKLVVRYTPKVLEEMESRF

T8: TJP3_3, O95049
T8 sequence (O95049 375-456, limits assumed, looked up): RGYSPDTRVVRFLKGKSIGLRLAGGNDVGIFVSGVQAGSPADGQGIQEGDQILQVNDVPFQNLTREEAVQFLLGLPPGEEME

T9: RADIL, Q96JH8
T9 sequence (Q96JH8 971-1071, limits assumed, looked up): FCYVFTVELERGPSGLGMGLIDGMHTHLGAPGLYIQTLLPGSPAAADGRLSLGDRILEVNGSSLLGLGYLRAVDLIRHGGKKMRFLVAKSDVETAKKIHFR

T10: DLG3_1, Q92796
T10 sequence (Q92796 125-227, limits assumed, looked up): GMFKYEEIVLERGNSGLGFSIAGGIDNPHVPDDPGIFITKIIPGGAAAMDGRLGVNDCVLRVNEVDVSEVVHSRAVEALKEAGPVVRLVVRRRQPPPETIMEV


How the values were obtained:
Test in all cases: holdup assay
Set-up in all cases: key: below the threshold = too weak to quantify, mostly under pKd 3.1 to 4
Conditions in all cases: plain residues with an end cap or a label only (N-terminal biotin on a linker: ado-ado)
[1] = molecular target: T1, GRIP1_5, Q9Y3R0
[2] = molecular target: T2, APBA1_2, Q02410
[3] = molecular target: T3, LIN7A, O14910
[4] = molecular target: MAST1, Q9Y2H9
Sequence of MAST1, Q9Y2H9 (Q9Y2H9 962-1065): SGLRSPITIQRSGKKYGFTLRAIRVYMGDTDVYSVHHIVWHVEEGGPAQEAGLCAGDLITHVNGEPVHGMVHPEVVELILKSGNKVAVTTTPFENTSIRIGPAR

[5] = molecular target: Inadl_1, Q8NI35
Sequence of Inadl_1, Q8NI35 (Q8NI35 113-229): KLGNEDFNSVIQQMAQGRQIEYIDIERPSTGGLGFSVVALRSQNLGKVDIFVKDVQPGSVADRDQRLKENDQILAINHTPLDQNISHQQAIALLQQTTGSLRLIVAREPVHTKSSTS

[6] = molecular target: T4, SYNJ2BP, P57105
[7] = molecular target: GORASP1, Q9BQQ3
Sequence of GORASP1, Q9BQQ3 (Q9BQQ3 1-208): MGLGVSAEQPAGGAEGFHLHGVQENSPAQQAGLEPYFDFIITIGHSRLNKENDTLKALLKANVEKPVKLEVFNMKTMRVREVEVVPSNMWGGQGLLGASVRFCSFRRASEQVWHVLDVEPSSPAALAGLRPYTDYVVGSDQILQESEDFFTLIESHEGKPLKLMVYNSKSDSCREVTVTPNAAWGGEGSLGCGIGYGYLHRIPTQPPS

[8] = molecular target: MAGI1_1, Q96QZ7
Sequence of MAGI1_1, Q96QZ7 (Q96QZ7 1-106): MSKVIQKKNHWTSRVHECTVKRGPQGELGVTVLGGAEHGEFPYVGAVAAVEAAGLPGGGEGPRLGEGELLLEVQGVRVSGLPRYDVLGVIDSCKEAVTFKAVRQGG

[9] = molecular target: DLG1_1, Q12959
[10] = molecular target: PARD3_3, Q8TEW0
Sequence of PARD3_3, Q8TEW0 (Q8TEW0 582-685): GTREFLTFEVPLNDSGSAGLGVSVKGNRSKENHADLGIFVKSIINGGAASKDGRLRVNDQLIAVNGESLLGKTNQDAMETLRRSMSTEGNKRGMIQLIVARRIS

[11] = molecular target: PTPN3, P26045
Sequence of PTPN3, P26045 (P26045 505-587): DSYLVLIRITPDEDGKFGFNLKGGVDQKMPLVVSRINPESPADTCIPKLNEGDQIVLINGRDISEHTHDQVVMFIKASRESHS

[12] = molecular target: T5, SHANK1, Q9Y566
[13] = molecular target: T6, PARD3B_1, Q8TEW8
[14] = molecular target: T7, LIN7C, Q9NUP9
[15] = molecular target: AHNAK1, Q09666
Sequence of AHNAK1, Q09666 (Q09666 4-100): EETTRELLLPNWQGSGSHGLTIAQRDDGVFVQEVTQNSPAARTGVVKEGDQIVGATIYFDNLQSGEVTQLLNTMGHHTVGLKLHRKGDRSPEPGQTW

[16] = molecular target: T8, TJP3_3, O95049
[17] = molecular target: DLG2_2, Q15700
Sequence of DLG2_2, Q15700 (Q15700 189-283): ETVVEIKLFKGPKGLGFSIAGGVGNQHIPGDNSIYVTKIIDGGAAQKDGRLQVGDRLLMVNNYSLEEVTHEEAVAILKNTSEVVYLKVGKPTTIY

[18] = molecular target: Inadl_2, Q8NI35
Sequence of Inadl_2, Q8NI35 (Q8NI35 238-335): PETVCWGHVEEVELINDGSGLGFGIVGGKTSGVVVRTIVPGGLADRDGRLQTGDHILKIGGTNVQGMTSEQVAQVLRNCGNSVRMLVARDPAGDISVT

[19] = molecular target: Inadl_9, Q8NI35
Sequence of Inadl_9, Q8NI35 (Q8NI35 1530-1615): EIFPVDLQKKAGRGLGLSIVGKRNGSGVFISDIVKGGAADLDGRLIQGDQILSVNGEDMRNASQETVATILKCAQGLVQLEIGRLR

[20] = molecular target: MAGI1_2, Q96QZ7
Sequence of MAGI1_2, Q96QZ7 (Q96QZ7 456-580): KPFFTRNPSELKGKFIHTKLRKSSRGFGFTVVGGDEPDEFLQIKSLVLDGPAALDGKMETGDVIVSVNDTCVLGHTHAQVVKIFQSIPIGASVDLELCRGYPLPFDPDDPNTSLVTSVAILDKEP

[21] = molecular target: GRIP2_3, Q9C0E4
Sequence of GRIP2_3, Q9C0E4 (Q9C0E4 238-339): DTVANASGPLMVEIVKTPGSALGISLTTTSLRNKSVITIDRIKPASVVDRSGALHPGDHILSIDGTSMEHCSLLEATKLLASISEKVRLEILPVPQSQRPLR

[22] = molecular target: HTRA2, O43464
Sequence of HTRA2, O43464 (O43464 355-458): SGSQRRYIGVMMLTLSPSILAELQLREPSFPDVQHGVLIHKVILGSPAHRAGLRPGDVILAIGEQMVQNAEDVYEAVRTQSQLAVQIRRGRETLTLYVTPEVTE

[23] = molecular target: DLG4_2, P78352
Sequence of DLG4_2, P78352 (P78352 155-259): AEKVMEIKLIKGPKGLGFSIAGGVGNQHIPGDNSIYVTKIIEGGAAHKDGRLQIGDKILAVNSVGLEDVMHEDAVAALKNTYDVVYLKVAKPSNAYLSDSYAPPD

[24] = molecular target: NHERF2_2, Q15599
Sequence of NHERF2_2, Q15599 (Q15599 142-238): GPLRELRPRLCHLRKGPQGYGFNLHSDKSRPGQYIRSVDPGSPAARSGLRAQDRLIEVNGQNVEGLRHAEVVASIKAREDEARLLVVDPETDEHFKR

[25] = molecular target: T9, RADIL, Q96JH8
[26] = molecular target: T10, DLG3_1, Q92796
[27] = molecular target: MAGI2_5, Q86UL8
Sequence of MAGI2_5, Q86UL8 (Q86UL8 915-1017): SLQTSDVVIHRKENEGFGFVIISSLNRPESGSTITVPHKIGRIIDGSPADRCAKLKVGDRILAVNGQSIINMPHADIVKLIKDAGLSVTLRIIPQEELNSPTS

| pKd [1] | pKd [2] | pKd [3] | pKd [4] | pKd [5] | pKd [6] | pKd [7] | pKd [8] | pKd [9] | pKd [10] | pKd [11] | pKd [12] | pKd [13] | pKd [14] | pKd [15] | pKd [16] | pKd [17] | pKd [18] | pKd [19] | pKd [20] | Binder | further results |
| --- | --- | --- | --- | --- | --- | --- | --- | --- | --- | --- | --- | --- | --- | --- | --- | --- | --- | --- | --- | --- | --- |
| below the threshold | 3.54 | below the threshold | 4.58 | below the threshold | below the threshold | below the threshold | below the threshold | below the threshold | below the threshold | below the threshold | 4.5 | 3.72 | 3.49 | below the threshold | below the threshold | below the threshold | below the threshold | 3.51 | below the threshold | PTPDLPQTRV [KLHDC7A, Q5VTJ3] | pKd [21]: below the threshold; pKd [22]: below the threshold; pKd [23]: 3.5; pKd [24]: below the threshold; pKd [25]: below the threshold; pKd [26]: below the threshold; pKd [27]: below the threshold |
| below the threshold | 3.53 | below the threshold | below the threshold | below the threshold | 4.91 | below the threshold | below the threshold | below the threshold | below the threshold | 4.02 | below the threshold | below the threshold | 3.92 | below the threshold | below the threshold | below the threshold | below the threshold | below the threshold | below the threshold | QRPYRRGSEI [KCNJ18, B7U540] | pKd [21]: below the threshold; pKd [22]: below the threshold; pKd [23]: 3.66; pKd [24]: below the threshold; pKd [25]: below the threshold; pKd [26]: below the threshold; pKd [27]: below the threshold |
| below the threshold | below the threshold | below the threshold | 4.06 | below the threshold | 4.84 | below the threshold | below the threshold | 3.54 | below the threshold | 4.6 | below the threshold | below the threshold | below the threshold | below the threshold | below the threshold | 3.86 | below the threshold | below the threshold | 3.89 | NISYRRESAI [KCNJ4, P48050] | pKd [21]: below the threshold; pKd [22]: below the threshold; pKd [23]: 4.17; pKd [24]: below the threshold; pKd [25]: below the threshold; pKd [26]: below the threshold; pKd [27]: below the threshold |

The remaining lines, values behind:

| Binder | pKd [1] | pKd [2] | pKd [3] | pKd [4] | pKd [5] | pKd [6] | pKd [7] | pKd [8] | pKd [9] | pKd [10] | pKd [11] | pKd [12] | pKd [13] | pKd [14] | pKd [15] | pKd [16] | pKd [17] | pKd [18] | pKd [19] | pKd [20] | further results |
| --- | --- | --- | --- | --- | --- | --- | --- | --- | --- | --- | --- | --- | --- | --- | --- | --- | --- | --- | --- | --- | --- |
| ARGPPRESEV [FAM110D, Q8TAY7] | below the threshold | 3.69 | below the threshold | 4.48 | below the threshold | 5.35 | below the threshold | below the threshold | 4.7 | below the threshold | 4.94 | below the threshold | below the threshold | 3.67 | below the threshold | below the threshold | 5.3 | below the threshold | 3.53 | 4.32 | pKd [21]: below the threshold; pKd [22]: below the threshold; pKd [23]: 5.63; pKd [24]: below the threshold; pKd [25]: below the threshold; pKd [26]: 4.3; pKd [27]: 3.9 |
| ARSAAASNYV [CLDN4, O14493] | below the threshold | 3.83 | below the threshold | 3.66 | below the threshold | 3.85 | 3.69 | below the threshold | below the threshold | 3.51 | below the threshold | below the threshold | 3.65 | 3.99 | below the threshold | 3.65 | below the threshold | below the threshold | 3.71 | below the threshold | pKd [21]: below the threshold; pKd [22]: below the threshold; pKd [23]: below the threshold; pKd [24]: below the threshold; pKd [25]: 4.5; pKd [26]: below the threshold; pKd [27]: below the threshold |
